The source of these data is doi:10.1101/2023.02.23.529646 (bioRxiv, 2023).

Positions count from the first letter of the chain named.

The target of one assay is T1, ACAD9_(A184S) (human, UniProt Q9H845 38-621, A184S).
T1 sequence: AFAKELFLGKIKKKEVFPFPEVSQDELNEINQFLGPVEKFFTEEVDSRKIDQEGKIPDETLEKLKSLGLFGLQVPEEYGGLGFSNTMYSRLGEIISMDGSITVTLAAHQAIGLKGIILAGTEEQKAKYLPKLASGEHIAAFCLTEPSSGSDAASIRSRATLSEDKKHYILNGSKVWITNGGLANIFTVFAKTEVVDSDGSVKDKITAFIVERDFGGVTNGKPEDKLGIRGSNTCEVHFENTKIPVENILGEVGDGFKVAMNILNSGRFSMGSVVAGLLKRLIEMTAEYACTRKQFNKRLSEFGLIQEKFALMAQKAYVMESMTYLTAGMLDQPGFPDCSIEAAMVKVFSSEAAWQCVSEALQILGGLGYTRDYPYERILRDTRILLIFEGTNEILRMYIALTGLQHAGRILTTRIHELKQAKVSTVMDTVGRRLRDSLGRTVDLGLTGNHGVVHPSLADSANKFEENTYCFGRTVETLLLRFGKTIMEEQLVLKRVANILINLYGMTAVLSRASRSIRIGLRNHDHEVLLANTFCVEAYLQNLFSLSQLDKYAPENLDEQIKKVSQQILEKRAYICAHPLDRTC
Nature of the assay: dynamic light scattering.

Another assay deals with T2, ACAD9_(SR194TS) (human, UniProt Q9H845 38-621, SR194TS).
T2 sequence: T1 sequence with S147A, S157T, R158S
Put plainly: dynamic light scattering.

For assay [1], the target named is T3, ACAD9WT (res. 38-621) (human, UniProt Q9H845 38-621).
T3 sequence: T1 sequence with S147A
Put plainly: ITC.

The target in a further assay is T4, ACAD9_(S191A) (human, UniProt Q9H845 38-621, S191A).
T4 sequence: T1 sequence with S147A, S154A
Nature of the assay: ITC.

The target in assay [2] is T3, ACAD9WT (res. 38-621). Nature of the assay: cryo-EM structure.

B1: ECSIT_(CTER) (residues 221-431) (domain or fragment)
chain: QDPVELAMFGLRHMEPDLSARVTIYQVPLPKDSTGAADPPQPHIVGIQSPDQQAALARHNPARPVFVEGPFSLWLRNKCVYYHILRADLLPPEEREVEETPEEWNLYYPMQLDLEYVRSGWDNYEFDINEVEEGPVFAMCMAGAHDQATMAKWIQGLQETNPTLAQIPVVFRLAGSTRELQTSSAGLEEPPLPEDHQEEDDNLQRQQQGQS
For orientation: Kd means the equilibrium constant for the complex coming apart. A low value points to a tighter complex. Turning to B1, the binding result with ACAD9_(A184S) and with ACAD9_(SR194TS) was “binds” in each case. In addition, the Kd with ACAD9WT (res. 38-621) [1] is 1.45 µM; in the assay with ACAD9_(S191A), 3.93 µM. The “stoichiometry N” value with ACAD9WT (res. 38-621) [2] was 1 ECSIT_(CTER) per ACAD9 protomer.
